Measurements from article PMC5376495 (ACS combinatorial science, 2017).
Where no end group is shown, it is not given here. [ ]: non-standard residue; d: D form. Lys(Me3) = C[N+](C)(C)CCCC[C@H](N)C(=O)O

Molecular target: His-tagged EED (His6X-EED), full length (UniProt O75530 1-441)
Assay: ITC

Chain of His-tagged EED (His6X-EED), full length (O75530 whole entry): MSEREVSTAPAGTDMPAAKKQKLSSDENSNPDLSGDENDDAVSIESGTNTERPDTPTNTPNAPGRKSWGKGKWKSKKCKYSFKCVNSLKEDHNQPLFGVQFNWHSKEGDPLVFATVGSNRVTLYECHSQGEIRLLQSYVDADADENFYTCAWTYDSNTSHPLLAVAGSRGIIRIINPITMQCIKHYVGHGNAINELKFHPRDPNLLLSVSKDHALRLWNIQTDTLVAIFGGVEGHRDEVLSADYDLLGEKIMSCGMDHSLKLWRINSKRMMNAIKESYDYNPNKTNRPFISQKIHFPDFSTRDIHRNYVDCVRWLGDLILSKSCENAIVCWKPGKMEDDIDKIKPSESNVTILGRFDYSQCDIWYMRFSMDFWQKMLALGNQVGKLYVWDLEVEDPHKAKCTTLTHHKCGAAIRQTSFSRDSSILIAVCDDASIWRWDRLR

Binder	Kd [µM]
QR[Lys(Me3)]FA (peptide, UniProt Q92833 114-118, looked up) [Jarid2_(114–118)K116me3]	8.82 ± 2.06
XKF (N-terminal (2S,3aS,7aS)-octahydro-1H-indole cap; methyl-isopropyl lysine (Kme,iPr); C-terminal piperidinyl ring in place of leucine) [UNC5115]	1.14 ± 0.14
